We go through 1 substance from paper PMC9546771.

In this experiment the target is His-tagged human FcRn/β2-microglobulin complex (human) (UniProt P55899). Kind of experiment: SPR; Biacore 8K, CM5 chip; His-tagged human FcRn/β2-microglobulin captured (45-60 RU) on covalently linked anti-His antibody; IgG1 injected as two-fold, eight-step series 75 nM to 0.29 nM; 25 °C; 20 mM phosphate pH 6.0, 137 mM NaCl, 2.7 mM KCl, 0.05% Tween-20; 1:1 binding model, apparent constants, KD = kd/ka; n=3 …. (In general: Surface plasmon resonance follows binding to a sensor surface in real time, without labels.)
Chain of UniProt P55899 (P55899 24-297, chain 1 of 2): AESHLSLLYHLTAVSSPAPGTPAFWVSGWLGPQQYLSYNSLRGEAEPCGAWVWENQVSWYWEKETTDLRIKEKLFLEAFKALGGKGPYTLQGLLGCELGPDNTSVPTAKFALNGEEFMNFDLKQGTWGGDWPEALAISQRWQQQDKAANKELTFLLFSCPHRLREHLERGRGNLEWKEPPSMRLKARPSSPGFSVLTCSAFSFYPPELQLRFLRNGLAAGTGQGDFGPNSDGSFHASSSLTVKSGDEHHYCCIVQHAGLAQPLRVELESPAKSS
Chain of UniProt P55899 (P61769 21-119, chain 2 of 2, further chain): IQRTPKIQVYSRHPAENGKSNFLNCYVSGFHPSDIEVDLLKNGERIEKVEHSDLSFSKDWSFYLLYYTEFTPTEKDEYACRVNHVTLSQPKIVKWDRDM

pKd: −log10 of the molar value.

For the substance IgG1-Campath (antibody), the pKd is 7.17, the off-rate (koff) was determined as 0.0439 s⁻¹ and the kon came out at 649000 M⁻¹ s⁻¹.

The pKd is −log10 of the Kd, conventionally taken in molar units. As usually defined, the koff is a measure of how fast the partners let go of each other. The kon is a measure of how fast the partners come together.
